The values below come from US20120275996A1 (AbbVie / Abbott, published 2012).

For assay [1], the target named is T1, human IL-1α (human, UniProt P01583 113-271).
T1 sequence: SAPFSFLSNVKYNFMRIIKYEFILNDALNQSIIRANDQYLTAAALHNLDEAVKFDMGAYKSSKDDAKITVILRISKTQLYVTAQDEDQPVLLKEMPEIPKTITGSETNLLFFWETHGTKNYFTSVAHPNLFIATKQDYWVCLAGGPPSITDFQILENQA
Put plainly: cell-based or functional assay.

For assay [2], the target named is T2, cynomolgus IL-1α (cynomolgus, UniProt P79340 113-271, limits assumed).
T2 sequence (looked up): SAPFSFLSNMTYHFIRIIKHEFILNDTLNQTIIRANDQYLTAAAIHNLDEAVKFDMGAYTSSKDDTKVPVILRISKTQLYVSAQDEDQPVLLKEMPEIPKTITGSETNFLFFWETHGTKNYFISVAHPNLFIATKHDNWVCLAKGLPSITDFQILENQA
Put plainly: cell-based or functional assay.

The target of assay [3] is T1, human IL-1α. The assay is described as follows: ELISA; antibody captured by anti-human Fc, biotinylated antigen titrated. Here is the method: Plates were washed five times in washing buffer (PBS containing 0.05% Tween 20), and blocked for 1 hour at 25° C. with 200 μl per well superblock blocking buffer (Thermo scientific, #37515). Blocking buffer was removed by tapping plates, and 2 μg/ml of each antibody in PBS containing 10% superblock, 0.5% tween-20 was added to the wells at 100 μl per well and incubated at 25° C. for 1 hour. The wells were washed five times in 1×PBST, and 1 μg/ml biotinylated antigen was titrated at 1:6 serial dilutions (for a range of μg to pg in PBS containing 10% superblock, 0.05% Tween 20). Each dilution of antigen was then added to the plates and incubated for 1 hour at 25° C. The wells were washed five times in 1XPBST and incubated for 1 hour at […]. with polyHRP streptavidin (KPL #474-3000, Gaithersburg, Md.). The wells were washed five times in 1XPBST, and 100 μl of ULTRA-TMB ELISA (Pierce, Rockford, Ill.) were added per well. Following color development the reaction was stopped with 1N HCL and absorbance at 450 nm is measured. The results are shown in Table 11 and the numerical value indicates binding of human anti-IL-1a antibodies to human IL-1α.

The target of assay [4] is T1, human IL-1α. Put plainly: SPR (Biacore 3000), antibody captured, antigen in solution, 25 °C. As for the experimental part: (§1) The BIACORE assay (Biacore, Inc, Piscataway, N.J.) determines the affinity of antibodies with kinetic measurements of on-, off-rate constants. Binding of antibodies to recombinant purified human IL-1α and cynomolgus IL-1α was determined by surface plasmon resonance-based measurements with a Biacore® 3000 instrument (Biacore® AB, Uppsala, Sweden) using running HBS-EP (10 mM HEPES [pH 7.4], 150 mM NaCl, 3 mM EDTA, and 0.005% surfactant P20) at 25° C. All chemicals were obtained from Biacore® AB (Uppsala, Sweden) or otherwise from a different source as described in the text. Approximately 5000 RU of goat anti-mouse IgG, (Fcγ), fragment specific polyclonal antibody (Pierce Biotechnology Inc, Rockford, Ill.) diluted in 10 mM sodium acetate (pH 4.5) was directly immobilized across a CM5 research grade biosensor chip using a standard amine coupling kit according to manufacturer's instructions and procedures at 25 μg/ml. Unreacted moieties on the biosensor surface were blocked with ethanolamine. Modified carboxymethyl dextran surface in flowcell 2 and 4 was used as a reaction surface. Unmodified carboxymethyl dextran without goat anti-mouse IgG in flow cell 1 and 3 was used as the reference surface. For kinetic analysis, rate equations derived from the 1:1 Langmuir binding model were fitted simultaneously to association and dissociation phases of all eight injections (using global fit analysis) with the use of Biaevaluation 4.0.1 software. Purified antibodies were diluted in HEPES-buffered saline for capture across goat anti-human IgG specific reaction surfaces. Antibodies to be captured as a ligand (25 μg/ml) were injected over reaction matrices at a flow rate of 5 μl/minute. The association and dissociation rate constants, kₒₙ (unit M⁻¹s⁻¹) and koff (unit s⁻¹) were determined under a continuous flow rate of 25 μl/min Rate constants were derived by making kinetic binding measurements at ten different antigen concentrations ranging from 10-200 nM. The equilibrium dissociation constant (unit M) of the reaction between antibodies and the target antigen was then calculated from the kinetic rate constants by the following formula: KD=koff/kₒₙ. Binding is recorded as a function of time and kinetic rate constants are calculated. In this assay, on-rates as fast as 10⁶M⁻¹s⁻¹ and off-rates as slow as 10⁻⁶ s⁻¹ can be measured.

In assay [5] the target is T2, cynomolgus IL-1α. Described as above. Here is the method:
as §1

Residue numbers refer to the chain shown, from its start. Names and notes keep the numbering of the source.

B1: 3D12-372-10 (antibody, V domains shown)
VH: EIQLVQSGAEVKKPGASVKVSCKASGYTFTNYGMNWVRQAPGQGLEWMGWINTYTGESTYADDFKGRFTFTLDTSTSTAYMELSSLRSEDTAVYFCARGIYYYGSSYAMDYWGQGTTVTVSS
VL: DIQMTQSPSSLSASVGDRVTITCRASQDISDMLNWYQQKPGKTPKLLIYHTSRLYSGVPSRFSGSGSGTDYTFTISSLQPEDIATYFCQQGKTLPPAFGQGTKLEIKR
notes: no constant regions are stated for this clone
On to B1, for which the “Potency on hIL-1α (pM); inhibition of IL-1α induced hIL-8 production by MRC-5 cells” value (from here on “Potency on hIL-1α (pM); inhibition”) in assay [1] was 49.9 pM. The “Potency on cyno IL-1α (pM); inhibition of IL-1α induced hIL-8 production by MRC-5 cells” value (shortened to “Potency on cyno IL-1α (pM); inhibition”) in assay [2] was found to be 49.2 pM. Moreover, in assay [3], a half-maximal effect (EC50) was put at 0.0721 nM.

B2: 3D12-362-10/372-10 (antibody, V domains shown)
VH: B1 VH with I2V, A16V, N31T, N35H, K65Q, F68V, D110N
VL: B1 VL
B2: the “Potency on hIL-1α (pM); inhibition” value in assay [1] came out at 29.3 pM. The “Potency on cyno IL-1α (pM); inhibition” value in assay [2] stood at 4.9 pM. Besides, the EC50 in assay [3] stood at 0.133 nM.

B3: 3D12-362-10 (antibody, V domains shown)
VH: B1 VH with I2V, A16V, N31T, N35H, K65Q, F68V, D110N
VL: B1 VL with D31N, M32C, H50Y, Y55H, P96Y
notes: no constant regions are stated for these clones; The humanized parents used human IgG1 with L234A/L235A and human kappa
B3: the “Potency on hIL-1α (pM); inhibition” value in assay [1] stood at 4.8 pM. The “Potency on cyno IL-1α (pM); inhibition” value in assay [2] was 6.2 pM. Further, in assay [4], binding was characterised by a dissociation constant (Kd) of 0.0528 nM, the dissociation rate constant (koff) was 8.38e-05 s⁻¹ and the kon turned out to be 1.59e+06 M⁻¹ s⁻¹. In assay [5], this molecule yielded a Kd of 0.0135 nM, a koff of 2.19e-05 s⁻¹ and an association rate constant (kon) of 1.63e+06 M⁻¹ s⁻¹. The same molecule showed an EC50 in assay [3] of 0.0196 nM.

B4: 3D12-372-15 (antibody, V domains shown)
VH: B1 VH with G44D
VL: B1 VL with D31N, H50Y, S56P, P96Y
notes: as for B1
Consider B4, for which the “Potency on hIL-1α (pM); inhibition” value in assay [1] was determined as 38.6 pM. The same molecule displayed an EC50 in assay [3] of 0.0742 nM.

B5: 3D12.6 (antibody, V domains shown)
VH: EIQLVQSGSELKKPGASVKVSCKASGYTFTNYGMNWVRQAPGQDLERMAWINTYTGESTYADDFKGRFVFSLDTSVSTAYLQISSLKAEDTAVYFCARGIYYYGSSYAMDYWGQGTTVTVSS
VL: DIQMTQSPSSLSASVGDRVTITCRASQDISNCLNWYQQKPGKTPKLLIYYTSRLHSGVPSRFSGSGSGTDYTFTISSLQPEDIATYFCQQGKTLPYAFGQGTKLEIK
notes: Full-length humanized antibody; VH is fused to a human IgG1 constant region with L234A and L235A (EU numbering); also called VH H3D12VH.1A / VL H3D12VK.1C; VH3D12.6
In assay [4], B5 gave a Kd of 1.78 nM, an off-rate (koff) of 0.00206 s⁻¹ and a kon of 1.16e+06 M⁻¹ s⁻¹.

B6: 3D12.11 (antibody, V domains shown)
VH: B1 VH with G44D, W47R, G49A
VL: B5 VL
notes: Full-length humanized antibody; VH is fused to a human IgG1 constant region with L234A and L235A (EU numbering); also called VH H3D12VH.2A / VL H3D12VK.1C; VH3D12.11
In assay [4], B6 had a dissociation constant Kd of 0.665 nM, a koff of 0.00108 s⁻¹ and a kon of 1.64e+06 M⁻¹ s⁻¹.
